Measured values taken from a protein production outcome set (Wang et al. 2014).

test: label from the status in PepcDB records

Sequence | protein production
MSKKKSAAMTLKDFHGGSIPSDLPLPSAPGVTPKVIPDRPVFDRAPWGNSIGRPDQRARPSSSHAIRNLDDKSLFLPHNVNIGRNFSEDERKPLDGHSAPRRVVSDDVFRFANNRLEMKADSVLAGRHSGWAAGPLTHSGTGNIENSVSGNHSNIWNGRKEVSVANNEPGQSPWTKQPAVSNLVHTSALDQVSSGGWQSKLLVPSQMGFDVVKHSEIDTRVYKTNSPVISQGVEPHGTHVERALIAEDGIQRGKKLSREYEKIPGPTYVDAKEAKIVANTNDKPHPKYSDVKPAGHLVQPTAPSEVVERPKLNLLPRTKPLESVEKPVNDEKLENSASVLIQRENATQKSFNNSKSGLSTDEIPNQPAERPKLNLKPVAQLLEQPEVKTEKDRSAVFGGARPRELVLKERGIDEPEHHKLDQPTDRMVLKPIERVPEHASQRPVSSPRDMRTRKFDQKDGRNVSDIARSETQRRNWRENENKSARQQQQTQEKTRHPSPETWRKPVPQKLDSPNGTGIRHGKAASALELAQAYSPFSDPKSGIGSSNSFNKSRNNQTQQQPFSRLVGSTTTGRQINGY | failed
MSKKLVLLIISILCFTALTGCWIVRSDLSGDIIIGDGHGGTSHSIIKYNPATNKFESVEPGLYYEVEYNDDKSKILCYRFLENSEVRRFEICEYDIKSKKFGEPIFIPGDSQKFKGSVKYVPNSDRISFVLDYELHIYDRSSGTLTKLFEVAFNSYSWDNTGKKLLYGDYDENIYIYDMESNEKRKILTGICPVYSNSNEYIAYIGIDQRLTVYNVNTGKKWRTVPVDDSARYIFSPDDKYILLGTEYADLMSFPHYTLYILDYKTGKKKRLFGGEGNVPSLDWK | failed
MSKLIFSVLISVYYNESISYFKKSLDSILYQTLLPAEVVLVKDGILTDDLNCIVKEYSQKYPILKVISLPVNQGLGKALNEGLKHCSYDLVARMDTDDIAKPDRFEKQIRVFQEHPELDVVGAWIDEFEETTSNIISTRKLPEVHDDICQFAKKRNPENHPVIMFRKQAVLAAGGYQHFPLFEDYYLWIRMLQNGAKFYNIQESLLYFRFSPAMFKRRGGLKYVTTELRFQNQLRNLGFITSSEYLYNVFIRVITRMMPNTLRAILYKKALRK | failed
MSKLSLIQQLKQQKLSVGILSANWLQLNEEVTTLLENQINVLHFDIADGQFSSLFTVGAIGIKYFPTHCFKDVHLMVRNQLEVAKAVVANGANLVTLQLEQYHDFALTIEWLAKQKTTYANQVYPVLIGACLCPETPISELEPYLDQIDVIQLLTLDPRNGTKYPSELILDRVIQVEKRLGNRRVEKLINIDGSMTLELAKYFKQGTHQIDWLVSGSALFSGELKTNLKVWKSSIM | not failed
MSKLSLKIGTYFLILALCIETIAFVSFYKSLSKMRIVEETDALLEKGNRYSKKIKSRERRDEYYKEMKHAEHNKNPKRPVYPEFDITNEAAHLVESESISNSDIAIIITDHNGKIISTSEPVTKDMQKQLTCKTETVPDGGLVVERNWKKSKFITTVSPLNTTKFQGKLYMLLKTSFLENMLLKLMNQFLIISVLTIILTTISVFVFSRVITEPLVKMKRATEKMSKLNKPIQLGIKRNDELGSLAKTIEDLSSELTYMKKERNEFLASVAHELLTPLTYMKGYAKVAKRDSLTKEEREEYLQIIEDETDSVTDLVQDLFMLVQLEQHQFVIKKQKVLLQPFLERMVEKTKTTLTNKQMQLHVYCKDDLEVCIDERRMEQVMLNLLHNAYQHSPENTAITIRVLMETDSFTISVQDEGEGIPEEDIPHIFDRFYRVDKSRTRATGGKGIGLAVAKEIVELHNGSILVTSQLGAGTNFIIELPFE | failed
MSKPEFIARQGRKPTGWLGHIVARVMARETRPENDRALSFLDLADGDSLIDIGCGHGETLFQADRIVRLSGSVGVDFSEVMLKRARARNRDAVWDTRMAFHCADTAALPFPDKRFGKALSVHTIYFWPNPAAHLAEAFRVLRRGGRFLFCYRSTADRRAVEEFPDTVYRFPSVQEVEEKLKLVGFLGPETTTEDIKGLEHHHHHH | failed
MSKPKIAIIVGSTRAARFADVPTQWIAKIAKSHADIDVEVVDLRDFPLPFFDEVASSAWVPSTNEVAQRWQKKVAEFDGFIFTAAEYNHGPTAVLKNAIDYAANEWNKKPAGFVGYGSVGGARAVEQLRLHAVELQMAPVKSAVHIAWGDFLAVRQGEKKLEDLDHLNQAASALVNDVAWWAKALKKARAADVVDEEIKAA | failed
MSKRILFIVGSFSEGSFNRQLAKKAETIIGDRAQVSYLSYDRVPFFNQDLETSVHPEVAHAREEVQEADAIWIFSPVYNYAIPGPVKNLLDWLSRSLDLSDPTGPSVLQDKIVTVSSVANGASPEEVFEDYRSLLPFIRMHLVDQLTGVPINSEAWSTGILKVSAEKLAELSAQADALLSAVENLEHHHHHH | not failed
MSKTERDKIKVEMEIDPHLSWQEKLAVEEQEKLSPRLVYEIIRRDGVEELSRPTSTLIFSGITAGLVMSFSFVFKAVIASYLPIDAVWTDLITNIGYTIGFLIAILGHLQLFTENTITTVIPLFKPFSLDKLKAVARLWSIVILTNIFGTALSSLFFLTTDLFSPEVDHALDEIAHHVASFTAWENFLKGVLSGLLIAALVWMLPSVNNKILLIFMITYLIGLGDFTHVVVGSVEVAYLVWQGQTSLSEYFFQFLVPTTLGNIIGGTGIFTLLIYGQVNQELEE | failed
MSKVDTIQEKLIPPIMKFANSKIITAIKDGVIITMPLTLVGSIFLLIANFPIKSWNSWMTAIFGPNWAVPLTQVSGSTFDIMAIAAVIGIAAQYSKNEGQDPVTAGLLGAVAFLIIMPSYSPINIGDKVGGIVMKHADKVQSVIPKAWTGGKGMIAALIIGVLTGYIYSWFLKRDIRIKLPESVPSGVSNAFSALIPGAVIITGSMLIFIFFNIVTGATALEWIYKVLQIPLQGITDSLGGAIAIPFVISFFWWFGVHGATLIGGVMNSIYQANTLANQDVFKAGHKLIASGAGKNAHIVCQQFQDNFVTLGGSGITLGLVAACFLFARSQRLKQLGKLALVPGCFNINEPVLFGLPIVLNPLMFIPFLICPLVSGILTYFAIYTGLVPCFTAVQAIWTTPPVLSGLIVAGWRGAVLQLIIIAIAAIVYFPFFKSLDKQYYQEEISGEAE | failed
MSKVNQQDIDKLIELVGGRGNIATVSHCITRLRFVLNDPAIARPKEIEQLRMVKGCFTNAGQFQVVIGTEVGDYYKALLATTGQTSADKEQVKQA | not failed
MSLALLLGYELPLTGANAAYGRVFQEAARLQLDRFNAAGGVGGRPVDILYADSRDDADQARTIARAFVDDPRVVGVLGDFSSTVSMAAGSIYGKEGMPQLSPTAAHPDYIKISPWQFRAITTPAFEGPNNAAWMIGDGFTSVAVIGVTTDWGLSSAQAFRKAFELRGGAVVVNEEVPPGNRRFDDVIDEIEDEAPQAIYLAMAYEDAAPFLRALRARGSALPVYGSSALYSPKFIDLGGPAVEGVRLATAFVLGASDPVVVEFVSAYETLYGAIPTLFAAHGYDAVGIMLAAVGRAGPEVTRESLRDALAATDRYAGVTGITRFDPETRETTKILTRLVVREGDFRVIDREGHHHHHH | not failed
MSLAMQDFRPGVYRHYKGDHYLALGLARADETDEVVVVYTRLYARAGLPMSTRLLRIWNETVDTGAGPQPRFAYVGHVTPEQGEGHHHHHH | not failed
MSLAPRPRILICEDDPDIARLLNLMLEKGGFDSDMVHSAAQALEQVARRPYAAMTVDLNLPDQDGVSLIRALRRDSRTRDLAIVVVSANAREGELEFNSQPLAVSTWLEKPIDENLLILSLHRAIDNMAEGKEGHHHHHH | not failed
MSLATQQLGIIGLFVPTFFGSYYGTILKQTDLELRAVHRHVVVATGCGESTPREQALEAVRFLIGRDCDGVVVISHDLHDEDLDELHRMHPKMVFLNRAFDALPDASFCPDHRRGGELAAATLIEHGHRKLAVISGPFTASDNVERLDGFFDELARHGIARDSVPLIESDFSPEGGYAATCQLLESKAPFTGLFCANDTMAVSALARFQQLGISVPGDVSVIGYDDDYSAAYAAPALTSVHIPTAELTQNAVRWLINQCYGTKWEIFREFPVTVSMRASVAREGHHHHHH | not failed
MSLAWLISEFASVGDVTVRALRYYDKINLLKPSDYTEGGHRLYTKDDLYVLQQIQSFKHLGFSLGEIQNIILQRDIETEVFLRQMHFQREVLLAEQERIAKVLSHMDEMTKKFQKEERVNVALFSSFLQTFIWEKENKEGHHHHHH | not failed
MSLDFRSADFLRTHISDTMAFYHPRCIDSAGGFFHYFRDDGSIYNATHRHLVSSTRFVFNYAMAYLQFGTAEYLDAVHHGLSYVRDVHRNPATGGYAWTLCDDRVEDDTNHCYGLAFVMLAYSCGLKVGIKQAREWMDETWCLLERHFWDAEYGLYKDEADAQWNFTRYRGQNANMHMCEAMLAAYEASGEQRYLERALVLADRITRRQAAKADGLVWEHYDMRWEVDWDYNRDNPKHLFRPWGFQPGHQTEWAKLLLILDRYIEVEWLVPVARSLFDVAVARSWDAVRGGLCYGFAPDGTICDDDKYFWVQAESLAAAALLATRSGDERYWQWYDRLWAYAWQHMVDHRYGAWYRLLDGDNRKYNDEKSPAGKTDYHTMGACHEVLNVVWTKSEGHHHHHH | not failed
MSLDIQSLDIQCEELSDARWAELLPLLQQCQVVRLDDCGLTEARCKDISSALRVNPALAELNLRSNELGDVGVHCVLQGLQTPSCKIQKLSLQNCCLTGAGCGVLSSTLRTLPTLQELHLSDNLLGDAGLQLLCEGLLDPQCRLEKLQLEYCSLSAASCEPLASVLRAKPDFKELTVSNNDINEAGVRVLCQGLKDSPCQLEALKLESCGVTSDNCRDLCGIVASKASLRELALGSNKLGDVGMAELCPGLLHPSSRLRTLWIWECGITAKGCGDLCRVLRAKESLKELSLAGNELGDEGARLLCETLLEPGCQLESLWVKSCSFTAACCSHFSSVLAQNRFLLELQISNNRLEDAGVRELCQGLGQPGSVLRVLWLADCDVSDSSCSSLAATLLANHSLRELDLSNNCLGDAGILQLVESVRQPGCLLEQLVLYDIYWSEEMEDRLQALEKDKPSLRVIS | not failed
MSLDKVLVGYWHNWKSTGKDGYKGGSSADFNLSSTQEGYNVINVSFMKTPEGQTLPTFKPYNKTDTEFRAEISKLNAEGKSVLIALGGADAHIELKKSQESDFVNEIIRLVDTYGFDGLDIDLEQAAIEAADNQTVIPSALKKVKDHYRKDGKNFMITMAPEFPYLTSSGKYAPYINNLDSYYDFINPQYYNQGGDGFWDSDLNMWISQSNDEKKEDFLYGLTQRLVTGTDGFIKIPASKFVIGLPSNNDAAATGYVKDPNAVKNALNRLKASGNEIKGLMTWSVNWDAGTNSNGEKYNNTFVNTYAPMLFNNEGHHHHHH | not failed
MSLDLSLNNLYSISTVELIQAFANTPASVTSLNLSGNSLGFKNSDELVQILAAIPANVTSLNLSGNFLSYKSSDELVKTLAAIPFTITVLDLGWNDFSSKSSSEFKQAFSNLPASITSLNLRGNDLGIKSSDELIQILAAIPANVNSLNLRGNNLASKNCAELAKFLASIPASVTSLDLSANLLGLKLEHHHHHH | failed
MSLDMSPVQGKLDGRIRAQNPEEFLERLSQEYHFQWFVYNDTLYVSPSSEHTSARIEVSPDAVDDLQTALTDVGLLDKRFGWGSLPDEGVVLVRGPAKYVEFVRDYSKKVEKPDEKADKQDVVVLPLKYANAADRTIRYRDQQLVVAGVASILQELLESRSRGESIDSVNLLPGQGSSVANSTGVAAAGLPYNLGSNGIDTGALQQGIDRVLNFNSKKTAKGHASGKANIRVSADVRNNSVLIYDLPERKAMYQKLVKELDVPRNLIEIDAVILDIDRNELAELSSRWNFNAGSVGGGANLFDAGTSSTLFLQNASKFSAELHALEGNGSASVIGNPSILTLENQPAVIDLSRTEYLTATSERAADILPITAGTSLQVIPRSLDNDGKPQVQMIVDIEDGQIDVSTINDTQPSVRRGNVSTQAVIAEHGSLVIGGFHGLEANDRIHKIPLLGDIPYIGKLLFQSRSRELSQRERLFILTPRLIGDQVNPARYVQNGNPHDVDDQMKKIKERRDGGELPTRGDIQKVFTQMIDGAAPEGLRAGQTLPFETDSLCDPGEGLTLDGQRSQWFVKKDWGVAVVVARNNTDKPVRIDESRCGGRWVIGVAAWPHAWLQPGEESEVYIAVRQPQISKMAKESRPSLLRGAKP | failed
